# In paper PMC11403609, “Kinetics of Secoisolariciresinol Glucosyltransferase LuUGT74S1 and Its Mutants” (Journal of Agricultural and Food Chemistry, 2024):
# Where a chain is given by its changes, count along the chain named. In names and notes the source's numbering stands.
# B1: LuUGT74S1 (Linum usitatissimum; H194S) (protein)
# chain: MAGDEREKAHCLVVPAAAQGHFTPLLQFSKRLIPKRIRVTLALTRFIHSTMTVTAQSGIHIDTISDGFDHSGLILQDPEHYSQTFRRVGSETLTDLIRKQSESRHPVHCIIYDASMPWFLDVAKRFGIVGAAFLTQSCAVNAIYYHLREGTIKRPVVSDPAAGTLVIDGLPPLEVSDLPSFIWDDLHTEFLAASLRQFSNDGADWVFCNTVYQLELEAVDWLTKQWLINFRTIGPTIPSFYLDKQIPDDKDYDISIFNPQNQTCMNWLQSKPDGSVVYVSFGSLARLSPQQTEELYFGLKNSNHYFLWVVRESEVAKLPKEEYLSGEKGLVVSWCSQLQVLASGKVGCFVTHCGWNSTLEALSLGVPMVAMPECGDQLTNAKFIKDVWKTGVRAEADDGKGIMWGMIKREVIERCIREVMEGEETRRNADKWGKIIKEAVVEGGSSDKNTEDFATSLINFAETFQFSC
# notes: N-terminal GST fusion (pGEX-4T-1, EcoRI/NotI), tag kept (eluted with glutathione); codon-optimised synthetic gene; E. coli BL21(DE3) pLysS
# B2: LuUGT74S1 (Linum usitatissimum; A17S) (protein)
# chain: B1 chain with A17S, S194H
# notes: as for B1
# B3: LuUGT74S1 (Linum usitatissimum) (protein)
# chain: B1 chain with S194H
# notes: as for B1
# B4: LuUGT74S1 (Linum usitatissimum; Y144F) (protein)
# chain: B1 chain with Y144F, S194H
# notes: as for B1
# B5: LuUGT74S1 (Linum usitatissimum; S115A) (protein)
# chain: B1 chain with S115A, S194H
# notes: as for B1
# B6: LuUGT74S1 (Linum usitatissimum; S115F) (protein)
# chain: B1 chain with S115F, S194H
# notes: as for B1
# B7: LuUGT74S1 (Linum usitatissimum; Q136E) (protein)
# chain: B1 chain with Q136E, S194H
# notes: as for B1
# B8: LuUGT74S1 (Linum usitatissimum; Q136S) (protein)
# chain: B1 chain with Q136S, S194H
# notes: as for B1
# B9: LuUGT74S1 (Linum usitatissimum; Q136F) (protein)
# chain: B1 chain with Q136F, S194H
# notes: as for B1
# Substrate: COc1cc(C[C@@H](CO)[C@H](CO)Cc2ccc(O)c(OC)c2)ccc1O
# Test: UDP-Glo glycosyltransferase assay (UDP release), Michaelis-Menten fit
# Type: biochemical, Linum usitatissimum
# Settings: apparent, UDP-glucose 1.64 mM constant (general assay text says 100 μM), 50 mM phosphate pH 8, 30 °C, 30 min, total of mono- and diglucosylation
# From the text: UDP-Glo glycosyltransferase assay (UDP release), Michaelis-Menten fit on LuUGT74S1
Protein,Km,Vmax,kcat,kcat/Km
B1,122 ± 12 µM,0.384 µmol/min/mg,0.34 ± 0.06 s⁻¹,3000 M⁻¹ s⁻¹
B2,68 ± 1 µM,0.75 µmol/min/mg,0.56 ± 0.45 s⁻¹,8000 M⁻¹ s⁻¹
B3,74 ± 1 µM,0.948 µmol/min/mg,0.8 ± 0.01 s⁻¹,11000 M⁻¹ s⁻¹
B4,72 ± 1 µM,0.9 µmol/min/mg,0.75 ± 0.02 s⁻¹,10000 M⁻¹ s⁻¹
B5,70 ± 2 µM,0.894 µmol/min/mg,0.76 ± 0.08 s⁻¹,11000 M⁻¹ s⁻¹
B6,75 ± 1 µM,0.834 µmol/min/mg,0.77 ± 0.02 s⁻¹,10000 M⁻¹ s⁻¹
B7,69 ± 2 µM,0.858 µmol/min/mg,0.75 ± 0.02 s⁻¹,11000 M⁻¹ s⁻¹
B8,75 ± 1 µM,1.02 µmol/min/mg,0.92 ± 0.71 s⁻¹,12000 M⁻¹ s⁻¹
B9,165 ± 9 µM,0.324 µmol/min/mg,0.29 ± 0.04 s⁻¹,2000 M⁻¹ s⁻¹
